The numbers were not newly measured in patent US20110218118A1, “PEPTIDE MODULATORS OF CELLULAR PHENOTYPE AND BI-NUCLEIC ACID FRAGMENT LIBRARY” (PHYLOGICA LIMITED, priority 2004, published 2011), which cites them from elsewhere.

The target of this data set is T1, human cyclin E (Homo sapiens, UniProt P24864).
T1 construct: expressed in transfected cells; host or cells: Saccharomyces cerevisiae strain AZ-1 (huCDK2::his2), mated with PRT 51
The conditions noted are these: yeast over-expressing human cyclin E and co-expressing human Cdk2.

T1 sequence (P24864 16-410): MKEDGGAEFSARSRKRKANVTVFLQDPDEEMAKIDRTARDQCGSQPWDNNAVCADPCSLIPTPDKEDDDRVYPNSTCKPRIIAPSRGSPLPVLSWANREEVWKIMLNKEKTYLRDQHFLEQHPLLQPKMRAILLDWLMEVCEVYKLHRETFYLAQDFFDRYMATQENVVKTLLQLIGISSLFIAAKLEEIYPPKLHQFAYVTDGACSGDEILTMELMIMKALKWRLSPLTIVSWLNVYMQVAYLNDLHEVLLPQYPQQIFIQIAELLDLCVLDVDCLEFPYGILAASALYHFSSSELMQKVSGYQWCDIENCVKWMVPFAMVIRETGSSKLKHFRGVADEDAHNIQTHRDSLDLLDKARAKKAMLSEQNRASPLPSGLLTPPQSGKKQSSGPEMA

For “p21^CIP1: positive control protein, cDNA (SEQ ID NO: 60) cloned as in-frame fusion into the pMF4-5 plasmid”, the “rescue of the cyclin E lethal phenotype in yeast” value is “rescue the lethal phenotype in yeast”.
